Experimental data taken from the supplement of paper PMC10567573.
± gives the standard deviation.

Test: protein stability index of a GFP-peptide fusion (GPS, HEK-293T) (PSI 1-6); higher = more stable
Settings: c terminus: a fixed tail appended
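Further: 24-mer peptide tiles fused after GFP, lentivirally expressed, FACS-sorted into six equal bins by GFP/DsRed ratio, decoded by Illumina sequencing, PSI is the read-weighted mean bin number.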

Sequence: IEKVSVSTQTKKLSASSPRMLHRS [ZMYND11]
- protein stability index (treatment: DMSO): 3.96 ± 0.23
- protein stability index (treatment: MLN4924 1 uM, 8 h): 4.03 ± 0.34

Sequence: PNFNFNISHQGDYAVLAAEPELQV [AASDHPPT]
- protein stability index (treatment: DMSO): 4 ± 0.09
- protein stability index (treatment: MLN4924 1 uM, 8 h): 3.93 ± 0.39

Sequence: SPKRQLQFYRNLGKSGLRVSCLGL [KCNAB2]
- protein stability index (treatment: DMSO): 2.3 ± 0.41
- protein stability index (treatment: MLN4924 1 uM, 8 h): 2.18 ± 0.12

Sequence: DLLKKAKFHHSDCLSTWLLHFIAT [RHOBTB3]
- protein stability index (treatment: DMSO): 2.37 ± 0.44
- protein stability index (treatment: MLN4924 1 uM, 8 h): 2.34 ± 0.41

Sequence: GLLQYGSTVKNEFSLKTFKRKSEV [MATN2]
- protein stability index (treatment: DMSO): 3.02 ± 0.25
- protein stability index (treatment: MLN4924 1 uM, 8 h): 3.07 ± 0.35

Sequence: LCQKQVKAQLPRRESERRNHSLAR [FBXO28]
- protein stability index (treatment: DMSO): 3.81 ± 0.14
- protein stability index (treatment: MLN4924 1 uM, 8 h): 4.23 ± 0.17

Sequence: SLADQMSLLQSAWMEILILGVVYR [ESRRG]
- protein stability index (treatment: DMSO): 2.88 ± 0.55
- protein stability index (treatment: MLN4924 1 uM, 8 h): 2.86 ± 0.42

Sequence: KCKPSLPAEAEGAAQELENQMKER [TMEM120A]
- protein stability index (treatment: DMSO): 5.42 ± 0.19
- protein stability index (treatment: MLN4924 1 uM, 8 h): 5.49 ± 0.2

Sequence: AMFLGDAAAHWYGGAEMRTQHWPI [MYORG]
- protein stability index (treatment: DMSO): 2.41 ± 0.81
- protein stability index (treatment: MLN4924 1 uM, 8 h): 2.17 ± 0.25

Sequence: SYEKAVKTRVDLKELGQSQKEQGL [PDZK1]
- protein stability index (treatment: DMSO): 4.75 ± 0.15
- protein stability index (treatment: MLN4924 1 uM, 8 h): 4.84 ± 0.12

Sequence: TIKKRLENNYYWSASECMQDFNTM [BRD3]
- protein stability index (treatment: DMSO): 2.08 ± 0.47
- protein stability index (treatment: MLN4924 1 uM, 8 h): 2.15 ± 0.43

Sequence: TMSIPVAMETDGPLFEDVQMLRKT [PPP2R5C]
- protein stability index (treatment: DMSO): 4.22 ± 0.12
- protein stability index (treatment: MLN4924 1 uM, 8 h): 4.3 ± 0.1

Sequence: LIYTVMLAFRSGSDNLLVILKRKW [SLC35F2]
- protein stability index (treatment: DMSO): 2.3 ± 0.91
- protein stability index (treatment: MLN4924 1 uM, 8 h): 1.84 ± 0.51

Sequence: AAGEPLECPTCGHSYNVTQRRPRV [RNF208]
- protein stability index (treatment: DMSO): 3.79 ± 0.16
- protein stability index (treatment: MLN4924 1 uM, 8 h): 4.18 ± 0.21

Sequence: CVADNTNLYVFGGYNPDYDESGGP [KLHDC10]
- protein stability index (treatment: DMSO): 3.26 ± 0.14
- protein stability index (treatment: MLN4924 1 uM, 8 h): 3.18 ± 0.34

Sequence: GELPNHPKPAGGAIPTKKSLPSPS [FBF1]
- protein stability index (treatment: DMSO): 5.2 ± 0.25
- protein stability index (treatment: MLN4924 1 uM, 8 h): 5.25 ± 0.16

Sequence: TGEKLLELNGHTQKITAIITFPSL [WDR41]
- protein stability index (treatment: DMSO): 2.45 ± 0.58
- protein stability index (treatment: MLN4924 1 uM, 8 h): 2.3 ± 0.55

Sequence: MDVERQETPEWLDSDSCQKCDQPF [WDFY2]
- protein stability index (treatment: DMSO): 5.11 ± 0.25
- protein stability index (treatment: MLN4924 1 uM, 8 h): 5.08 ± 0.15

Sequence: LLSCGKILTGCKNMLFQQNKDGIG [ACSBG2]
- protein stability index (treatment: DMSO): 2.13 ± 0.42
- protein stability index (treatment: MLN4924 1 uM, 8 h): 2.23 ± 0.17

Sequence: NYYRTWNVVVHDWLYYYAYKDFLW [SOAT1]
- protein stability index (treatment: DMSO): 3.73 ± 0.5
- protein stability index (treatment: MLN4924 1 uM, 8 h): 2.94 ± 0.34

Sequence: WSKTQVLDWISYQVEKNKYDASAI [ELF3]
- protein stability index (treatment: DMSO): 2.59 ± 0.2
- protein stability index (treatment: MLN4924 1 uM, 8 h): 2.48 ± 0.28

Sequence: KCLSIMLAEWEANPLICPVCTKYN [RPAIN]
- protein stability index (treatment: DMSO): 2.8 ± 0.73
- protein stability index (treatment: MLN4924 1 uM, 8 h): 2.29 ± 0.19

Sequence: SDEDDEEERRRRVFDVPIRRRRCS [FBXO3]
- protein stability index (treatment: DMSO): 5.41 ± 0.32
- protein stability index (treatment: MLN4924 1 uM, 8 h): 5.42 ± 0.27

Sequence: VEINDLDPEVFKEMMRFIYTGRAP [SPOPL]
- protein stability index (treatment: DMSO): 2.36 ± 0.33
- protein stability index (treatment: MLN4924 1 uM, 8 h): 2.05 ± 0.28

Sequence: LPTLSHIQEAQSAWKDDFALNSML [YJU2B]
- protein stability index (treatment: DMSO): 3.13 ± 0.3
- protein stability index (treatment: MLN4924 1 uM, 8 h): 3.04 ± 0.23

Sequence: QGLIGSVEEQLAQLRCEMEQQNQE [KRT17]
- protein stability index (treatment: DMSO): 5.3 ± 0.36
- protein stability index (treatment: MLN4924 1 uM, 8 h): 5.29 ± 0.34

Sequence: SRFVETLVVADDKMAAFHGAGLKR [ADAMTS4]
- protein stability index (treatment: DMSO): 3.46 ± 0.089
- protein stability index (treatment: MLN4924 1 uM, 8 h): 4.26 ± 0.11

Sequence: FSDHTFRHYAYLRDSLSHLVPALR [INTS4]
- protein stability index (treatment: DMSO): 2.27 ± 0.18
- protein stability index (treatment: MLN4924 1 uM, 8 h): 2.36 ± 0.2

Sequence: AEKSVAPSNTGSRTTSVRCRGIPR [NEK8]
- protein stability index (treatment: DMSO): 4.63 ± 0.16
- protein stability index (treatment: MLN4924 1 uM, 8 h): 4.7 ± 0.26

Sequence: LGAMMLLESPIDPQPLSFKEPPLL [APMAP]
- protein stability index (treatment: DMSO): 2.41 ± 0.11
- protein stability index (treatment: MLN4924 1 uM, 8 h): 2.5 ± 0.45

Sequence: YAVEASTMAQHAEVLVKSNNLTDR [CARM1]
- protein stability index (treatment: DMSO): 4.16 ± 0.14
- protein stability index (treatment: MLN4924 1 uM, 8 h): 4.64 ± 0.34

Sequence: RRERELERRELAVEQGERALERRR [ZBED3]
- protein stability index (treatment: DMSO): 5.03 ± 0.44
- protein stability index (treatment: MLN4924 1 uM, 8 h): 5.18 ± 0.63

Sequence: FNGLTLLLMAVVSMFTLPVVYVKH [RTN1]
- protein stability index (treatment: DMSO): 3.3 ± 0.28
- protein stability index (treatment: MLN4924 1 uM, 8 h): 3 ± 0.41

Sequence: LTDDDVVDWDEEYPPQMGEEYSQI [BTBD10]
- protein stability index (treatment: DMSO): 5.15 ± 0.11
- protein stability index (treatment: MLN4924 1 uM, 8 h): 5.22 ± 0.19

Sequence: TVVPLDDATQEYKEKLQKCLEPLE [TRIM39]
- protein stability index (treatment: DMSO): 5.27 ± 0.13
- protein stability index (treatment: MLN4924 1 uM, 8 h): 5.22 ± 0.21

Sequence: GPSTPSPVAAQFTSEGTTLSGVDL [FCHO1]
- protein stability index (treatment: DMSO): 5.2 ± 0.4
- protein stability index (treatment: MLN4924 1 uM, 8 h): 4.96 ± 0.53

Sequence: TCRPPSSSESSSDSDNSGGGGGGG [ANKRD17]
- protein stability index (treatment: DMSO): 5.44 ± 0.24
- protein stability index (treatment: MLN4924 1 uM, 8 h): 5.43 ± 0.26

Sequence: AESDYSNNIMKCRSRYDGHRIWMY [LOXL2]
- protein stability index (treatment: DMSO): 2.4 ± 0.29
- protein stability index (treatment: MLN4924 1 uM, 8 h): 2.1 ± 0.38
